Results reported in patent US20070099247A1.

Target: Streptavidin (UniProt P22629)
Test: flow cytometry of YFP fluorescence on streptavidin coated beads after adding 1 uM biotin

Streptavidin, sequence (P22629 37-163 limits assumed): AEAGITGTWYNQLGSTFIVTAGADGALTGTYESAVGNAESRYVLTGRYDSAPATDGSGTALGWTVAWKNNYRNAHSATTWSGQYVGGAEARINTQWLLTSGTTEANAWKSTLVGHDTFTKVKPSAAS

koff: 0.02 s⁻¹
Substance: Yellow fluorescent protein with streptavidin binding peptide SA-1 inserted after Y145
